Among the data in article PMC6491520, “Antimicrobial Peptide LL-37 Facilitates Intracellular Uptake of RNA Aptamer Apt 21-2 Without Inducing an Inflammatory or Interferon Response” are Kd values, retold here.

Series [1] addresses T1, LL-37 (cathelicidin antimicrobial peptide) (UniProt P49913 134-170).
T1 chain: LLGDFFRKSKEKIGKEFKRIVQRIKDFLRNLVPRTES
Description: EMSA; apparent KD from 50% loss of free aptamer; 100 nM RNA; 1 h on ice, 100 nM aptamer, 0-100 uM LL-37; binding buffer not stated; EMSA loading with 60 mM KCl, 10 mM Tris pH 7.6, 40% glycerol; 7% native PAGE in TBE. As to conditions: label: 5' 32P. In general terms: A gel shift assay detects complexes by their altered migration in electrophoresis.

Series [2] deals with T1, LL-37 (cathelicidin antimicrobial …). The experiment in a line: filter binding; apparent KD from 50% loss of free aptamer; 100 nM RNA; 1 h on ice, 100 nM aptamer, 0-100 uM LL-37; binding buffer not stated; EMSA loading with 60 mM KCl, 10 mM Tris pH 7.6, 40% glycerol; 7% native PAGE in TBE. As to conditions: label: 5' 32P.

With GGUCUAGCCGGAGGAGUCAGUAAUCGGUAGACC (XNA, 2'-fluoro C and U) [Apt 21-2], the Kd in series [1] and in series [2] was ~2000 nM throughout.
